Earlier results on 2 substances are cited in paper PMC10155966.

pKd: −log10 of the molar value.

One series addresses LC8 (UniProt P63167).
Series [1] addresses dynein intermediate chain (IC) (Rattus norvegicus) (UniProt Q63100). In words: ITC.
Sequence of UniProt Q63100 (Q63100 2-643): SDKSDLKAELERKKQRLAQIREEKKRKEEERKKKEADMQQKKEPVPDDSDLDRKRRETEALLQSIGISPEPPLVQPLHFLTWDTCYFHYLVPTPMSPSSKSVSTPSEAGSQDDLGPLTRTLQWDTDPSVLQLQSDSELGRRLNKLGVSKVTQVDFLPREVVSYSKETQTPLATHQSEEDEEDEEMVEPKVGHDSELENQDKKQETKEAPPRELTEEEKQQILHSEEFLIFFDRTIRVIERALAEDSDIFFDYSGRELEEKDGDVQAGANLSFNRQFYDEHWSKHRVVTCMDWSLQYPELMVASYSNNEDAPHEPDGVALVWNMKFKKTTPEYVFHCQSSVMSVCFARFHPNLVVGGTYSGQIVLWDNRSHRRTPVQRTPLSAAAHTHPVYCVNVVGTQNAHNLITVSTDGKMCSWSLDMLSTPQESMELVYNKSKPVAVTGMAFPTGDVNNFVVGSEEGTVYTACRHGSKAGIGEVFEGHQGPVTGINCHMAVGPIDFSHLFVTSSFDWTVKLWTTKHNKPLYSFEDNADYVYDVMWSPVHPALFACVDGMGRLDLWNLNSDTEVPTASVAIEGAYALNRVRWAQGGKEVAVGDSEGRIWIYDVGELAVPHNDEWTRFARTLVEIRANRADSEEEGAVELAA

Sequence of LC8 (P63167 whole entry): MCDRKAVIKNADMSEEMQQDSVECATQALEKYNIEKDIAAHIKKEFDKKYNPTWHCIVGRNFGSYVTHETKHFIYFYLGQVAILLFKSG

LC8 (from UniProt P63167): in the series with LC8, the pKd was 7.22. On to NudE (from UniProt Q9ES39), for which the pKd in series [1] was 5.64.
